From PMC11886768 (2025)

Legend:
[1] = molecular target: E-COP1 (UniProt P43254); assay: mammalian three-hybrid (M3H) assay, GFP co-expressed as control third protein; settings: CHO-K1 cells, 24 h, parent: est. 150, read off a plot
[2] = molecular target: AD-COP1 (UniProt P43254); assay: yeast three-hybrid (Y3H) competition assay (BD-HY5, AD-COP1); settings: read off a plot
AD-COP1, sequence (P43254 whole entry): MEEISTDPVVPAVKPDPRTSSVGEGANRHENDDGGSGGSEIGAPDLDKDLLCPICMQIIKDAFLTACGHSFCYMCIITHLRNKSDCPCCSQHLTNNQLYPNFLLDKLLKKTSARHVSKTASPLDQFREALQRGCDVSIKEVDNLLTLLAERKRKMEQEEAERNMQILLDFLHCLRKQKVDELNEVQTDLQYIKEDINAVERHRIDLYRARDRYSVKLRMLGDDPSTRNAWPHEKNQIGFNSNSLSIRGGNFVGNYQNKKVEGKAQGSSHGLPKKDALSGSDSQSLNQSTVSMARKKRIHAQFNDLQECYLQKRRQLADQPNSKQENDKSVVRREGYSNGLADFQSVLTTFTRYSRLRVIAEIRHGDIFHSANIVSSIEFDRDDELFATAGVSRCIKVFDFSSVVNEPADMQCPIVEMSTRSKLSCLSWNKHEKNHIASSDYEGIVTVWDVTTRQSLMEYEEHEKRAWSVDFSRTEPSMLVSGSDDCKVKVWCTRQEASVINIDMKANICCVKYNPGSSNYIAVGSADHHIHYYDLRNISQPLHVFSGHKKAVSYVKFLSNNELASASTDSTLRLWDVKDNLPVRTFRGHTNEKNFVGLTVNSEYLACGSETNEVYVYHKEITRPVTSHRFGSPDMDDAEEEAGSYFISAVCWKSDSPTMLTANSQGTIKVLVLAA

E-COP1, sequence (P43254 whole entry): as above

Substance	response (Au (SEAP/sNLuc)) ([1]; blue light (10 μmol m−2 s−1))	response (Au (SEAP/sNLuc)) ([1]; darkness)	other: COP1-HY5 interaction signal (β-galactosidase activity) with the CCT1 variant as bridge protein ([2]; 1 day in darkness, followed by exposure to 50 μmol m−2 s−1 blue light for 1 day, no-bridge control est. 5.7, higher signal = less displacement of HY5 by the …, parent: est. 1.7) [Miller units]	other: COP1-HY5 interaction signal (β-galactosidase activity) with the CCT1 variant as bridge protein ([2]; darkness for 2 days, no-bridge control est. 8.5, higher signal = less displacement of HY5 by the CCT1 variant, parent: est. 3.1) [Miller units]
HY5 fused to the herpes simplex virus-derived transactivation domain (VP16) (from UniProt O24646) HY5-VPAA (VP motif to AA; positions not printed)	7	5		
CCT1 (yeast three-hybrid 'bridge protein') V548A; P549A			6.9	7.8
